Assay results published in patent US20230390362A1, “USE OF TRIGONAL AGONIST HAVING ACTIVITIES TO ALL OF GLUCAGON, GLP-1, AND GIP RECEPTORS IN TREATMENT OF SEQUELAE FOLLOWING RESPIRATORY INFECTIOUS DISEASES” (HANMI PHARM. CO., LTD., priority 2020, published 2023).
Positions of bridges follow the written chain, without caps; N, C: chain ends. Non-standard residues stand in square brackets, D forms with d. No end group written: not given here. *: point of attachment. Acetyl(2-(4-imidazolyl)) = O=C(Cc1c[nH]cn1)*; Aib = CC(C)(N)C(=O)O

T1: human GIP receptor (human, UniProt P48546 22-466)
T1 sequence (looked up): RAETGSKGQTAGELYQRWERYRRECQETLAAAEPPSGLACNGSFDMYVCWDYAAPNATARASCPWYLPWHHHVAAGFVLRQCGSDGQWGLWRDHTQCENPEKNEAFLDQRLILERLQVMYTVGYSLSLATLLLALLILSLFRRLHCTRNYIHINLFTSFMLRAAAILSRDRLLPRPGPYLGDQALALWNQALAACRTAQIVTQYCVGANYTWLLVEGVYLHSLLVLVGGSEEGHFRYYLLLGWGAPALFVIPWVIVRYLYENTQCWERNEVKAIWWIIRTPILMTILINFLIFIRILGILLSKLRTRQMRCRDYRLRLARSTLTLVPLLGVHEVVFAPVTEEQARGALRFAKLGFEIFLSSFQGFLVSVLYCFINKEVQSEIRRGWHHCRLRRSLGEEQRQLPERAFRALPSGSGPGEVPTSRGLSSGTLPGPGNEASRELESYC


These binders were tested against T1, human GIP receptor (assay: cell-based or functional assay).
With Y[Aib]QGTFTSDYSKYLDECRAKEFVQWLLDHHPSSGQPPPS (bridge 16-20) [trigonal agonist of SEQ ID NO: 21] the “In vitro activity relative to native peptide (%), vs. GIP (cAMP EC50)” value was 22.7%.
In the case of {Acetyl(2-(4-imidazolyl))}-GQGTFTSDLSIQYEEEAQQDFVEWLKDTGPSSGAPPPSHG [trigonal agonist of SEQ ID NO: 20], the “In vitro activity relative to native peptide (%), vs. GIP (cAMP EC50)” value is reported as less than 0.1%.
H[Aib]QGTFTSDCSKYLDSRAAQDFVQWLLDGGPSSGAPPPS [trigonal agonist of SEQ ID NO: 26] was tested, and the “In vitro activity relative to native peptide (%), vs. GIP (cAMP EC50)” value was less than 0.1%.
With H[Aib]QGTFTSDVSSYLLGQAAKQFIAWLVKGGGPSSGAPPPSC [trigonal agonist of SEQ ID NO: 3] the “In vitro activity relative to native peptide (%), vs. GIP (cAMP EC50)” value was less than 0.1%.
H[Aib]QGTFTSDYSKYLDEKACKDFVQWLLDGGPSSGAPPPS (bridge 16-20) [trigonal agonist of SEQ ID NO: 32] was tested, and the “In vitro activity relative to native peptide (%), vs. GIP (cAMP EC50)” value was 8.8%.
With Y[Aib]QGTFTSDYSKCLDEKRAKEFVQWLLDHHPSSGQPPPS (bridge 16-20) [trigonal agonist of SEQ ID NO: 22] the “In vitro activity relative to native peptide (%), vs. GIP (cAMP EC50)” value was 59.7%.
For H[Aib]QGTFTSDYSKYLDEKACKEFVQWLLAQ (bridge 16-20) [trigonal agonist of SEQ ID NO: 31], the “In vitro activity relative to native peptide (%), vs. GIP (cAMP EC50)” value was 2.4%.
H[Aib]QGTFTSDYSKYLDEKAQKEFVQWLLDTC (bridge 16-20) [trigonal agonist of SEQ ID NO: 30] was tested, and the “In vitro activity relative to native peptide (%), vs. GIP (cAMP EC50)” value was 0.8%.
In the case of {Acetyl(2-(4-imidazolyl))}-GQGTFTSDLSIQYDSEHQRDFIEWLKDTGPSSGAPPPSHG [trigonal agonist of SEQ ID NO: 19], the “In vitro activity relative to native peptide (%), vs. GIP (cAMP EC50)” value is reported as less than 0.1%.
H[Aib]QGTFTSDYSKYLDERACQDFVQWLLDQGGPSSGAPPPS [trigonal agonist of SEQ ID NO: 27] was tested, and the “In vitro activity relative to native peptide (%), vs. GIP (cAMP EC50)” value was 0.9%.
For Y[Aib]QGTFTSDYSKYLDECRAKEFVQWLKNGGPSSGAPPPS (bridge 16-20) [trigonal agonist of SEQ ID NO: 24], the “In vitro activity relative to native peptide (%), vs. GIP (cAMP EC50)” value was less than 0.1%.
In the case of H[Aib]QGTFTSDYSIAMDEIHQKDFVNWLLAQKC (bridge 16-20) [trigonal agonist of SEQ ID NO: 33], the “In vitro activity relative to native peptide (%), vs. GIP (cAMP EC50)” value is reported as 10.4%.
In the case of H[Aib]QGTFTSDYSKYLDEKRAQEFVCWLLAQKGKKNDWKHNIT [trigonal agonist of SEQ ID NO: 28], the “In vitro activity relative to native peptide (%), vs. GIP (cAMP EC50)” value is reported as less than 0.1%.
In the case of Y[Aib]QGTFTSDYSKYLDECRAKEFVQWLLAQKGKKNDWKHNIT (bridge 16-20) [trigonal agonist of SEQ ID NO: 23], the “In vitro activity relative to native peptide (%), vs. GIP (cAMP EC50)” value is reported as less than 0.1%.
For H[Aib]QGTFTSDYSKYLDEKAAKEFVQWLLNTC (bridge 16-20) [trigonal agonist of SEQ ID NO: 29], the “In vitro activity relative to native peptide (%), vs. GIP (cAMP EC50)” value was less than 0.1%.
With H[Aib]QGTFTSDCSKYLDERAAQDFVQWLLDGGPSSGAPPPS [trigonal agonist of SEQ ID NO: 25] the “In vitro activity relative to native peptide (%), vs. GIP (cAMP EC50)” value was less than 0.1%.

What follows are binders tested against human GLP-1 receptor (human, UniProt P43220 24-463) (assay: cell-based or functional assay).
With Y[Aib]QGTFTSDYSKYLDECRAKEFVQWLLDHHPSSGQPPPS (bridge 16-20) [trigonal agonist of SEQ ID NO: 21] the “In vitro activity relative to native peptide (%), vs. GLP-1 (cAMP EC50)” value was 17.8%.
With {Acetyl(2-(4-imidazolyl))}-GQGTFTSDLSIQYEEEAQQDFVEWLKDTGPSSGAPPPSHG [trigonal agonist of SEQ ID NO: 20] the “In vitro activity relative to native peptide (%), vs. GLP-1 (cAMP EC50)” value was less than 0.1%.
In the case of H[Aib]QGTFTSDCSKYLDSRAAQDFVQWLLDGGPSSGAPPPS [trigonal agonist of SEQ ID NO: 26], the “In vitro activity relative to native peptide (%), vs. GLP-1 (cAMP EC50)” value is reported as 64.5%.
In the case of H[Aib]QGTFTSDVSSYLLGQAAKQFIAWLVKGGGPSSGAPPPSC [trigonal agonist of SEQ ID NO: 3], the “In vitro activity relative to native peptide (%), vs. GLP-1 (cAMP EC50)” value is reported as 1.8%.
With H[Aib]QGTFTSDYSKYLDEKACKDFVQWLLDGGPSSGAPPPS (bridge 16-20) [trigonal agonist of SEQ ID NO: 32] the “In vitro activity relative to native peptide (%), vs. GLP-1 (cAMP EC50)” value was 151%.
For Y[Aib]QGTFTSDYSKCLDEKRAKEFVQWLLDHHPSSGQPPPS (bridge 16-20) [trigonal agonist of SEQ ID NO: 22], the “In vitro activity relative to native peptide (%), vs. GLP-1 (cAMP EC50)” value was 20.1%.
For H[Aib]QGTFTSDYSKYLDEKACKEFVQWLLAQ (bridge 16-20) [trigonal agonist of SEQ ID NO: 31], the “In vitro activity relative to native peptide (%), vs. GLP-1 (cAMP EC50)” value was 135%.
In the case of H[Aib]QGTFTSDYSKYLDEKAQKEFVQWLLDTC (bridge 16-20) [trigonal agonist of SEQ ID NO: 30], the “In vitro activity relative to native peptide (%), vs. GLP-1 (cAMP EC50)” value is reported as 142%.
With {Acetyl(2-(4-imidazolyl))}-GQGTFTSDLSIQYDSEHQRDFIEWLKDTGPSSGAPPPSHG [trigonal agonist of SEQ ID NO: 19] the “In vitro activity relative to native peptide (%), vs. GLP-1 (cAMP EC50)” value was less than 0.1%.
With H[Aib]QGTFTSDYSKYLDERACQDFVQWLLDQGGPSSGAPPPS [trigonal agonist of SEQ ID NO: 27] the “In vitro activity relative to native peptide (%), vs. GLP-1 (cAMP EC50)” value was 83.1%.
For Y[Aib]QGTFTSDYSKYLDECRAKEFVQWLKNGGPSSGAPPPS (bridge 16-20) [trigonal agonist of SEQ ID NO: 24], the “In vitro activity relative to native peptide (%), vs. GLP-1 (cAMP EC50)” value was 41.2%.
In the case of H[Aib]QGTFTSDYSIAMDEIHQKDFVNWLLAQKC (bridge 16-20) [trigonal agonist of SEQ ID NO: 33], the “In vitro activity relative to native peptide (%), vs. GLP-1 (cAMP EC50)” value is reported as 24.5%.
With H[Aib]QGTFTSDYSKYLDEKRAQEFVCWLLAQKGKKNDWKHNIT [trigonal agonist of SEQ ID NO: 28] the “In vitro activity relative to native peptide (%), vs. GLP-1 (cAMP EC50)” value was 17.2%.
With Y[Aib]QGTFTSDYSKYLDECRAKEFVQWLLAQKGKKNDWKHNIT (bridge 16-20) [trigonal agonist of SEQ ID NO: 23] the “In vitro activity relative to native peptide (%), vs. GLP-1 (cAMP EC50)” value was 4.01%.
In the case of H[Aib]QGTFTSDYSKYLDEKAAKEFVQWLLNTC (bridge 16-20) [trigonal agonist of SEQ ID NO: 29], the “In vitro activity relative to native peptide (%), vs. GLP-1 (cAMP EC50)” value is reported as 38.5%.
In the case of H[Aib]QGTFTSDCSKYLDERAAQDFVQWLLDGGPSSGAPPPS [trigonal agonist of SEQ ID NO: 25], the “In vitro activity relative to native peptide (%), vs. GLP-1 (cAMP EC50)” value is reported as 82.6%.

What follows are binders tested against human GCG receptor (human, UniProt P47871 26-477) (assay: cell-based or functional assay).
human GCG receptor, sequence (P47871 26-477): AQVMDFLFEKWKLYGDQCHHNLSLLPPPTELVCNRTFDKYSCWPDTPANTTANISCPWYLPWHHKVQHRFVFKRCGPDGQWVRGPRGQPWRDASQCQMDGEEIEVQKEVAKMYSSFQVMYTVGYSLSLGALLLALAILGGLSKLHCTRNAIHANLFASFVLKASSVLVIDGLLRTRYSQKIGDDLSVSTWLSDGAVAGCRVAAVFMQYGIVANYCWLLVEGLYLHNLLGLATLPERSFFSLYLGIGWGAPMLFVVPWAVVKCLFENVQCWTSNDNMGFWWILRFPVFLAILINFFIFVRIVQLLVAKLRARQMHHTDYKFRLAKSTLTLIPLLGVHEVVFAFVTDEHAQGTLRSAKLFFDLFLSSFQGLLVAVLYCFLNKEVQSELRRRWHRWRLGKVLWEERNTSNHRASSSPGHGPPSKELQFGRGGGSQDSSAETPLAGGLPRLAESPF
For Y[Aib]QGTFTSDYSKYLDECRAKEFVQWLLDHHPSSGQPPPS (bridge 16-20) [trigonal agonist of SEQ ID NO: 21], the “In vitro activity relative to native peptide (%), vs. Glucagon (cAMP EC50)” value was 267%.
In the case of {Acetyl(2-(4-imidazolyl))}-GQGTFTSDLSIQYEEEAQQDFVEWLKDTGPSSGAPPPSHG [trigonal agonist of SEQ ID NO: 20], the “In vitro activity relative to native peptide (%), vs. Glucagon (cAMP EC50)” value is reported as less than 0.1%.
With H[Aib]QGTFTSDCSKYLDSRAAQDFVQWLLDGGPSSGAPPPS [trigonal agonist of SEQ ID NO: 26] the “In vitro activity relative to native peptide (%), vs. Glucagon (cAMP EC50)” value was 0.2%.
For H[Aib]QGTFTSDVSSYLLGQAAKQFIAWLVKGGGPSSGAPPPSC [trigonal agonist of SEQ ID NO: 3], the “In vitro activity relative to native peptide (%), vs. Glucagon (cAMP EC50)” value was less than 0.1%.
With H[Aib]QGTFTSDYSKYLDEKACKDFVQWLLDGGPSSGAPPPS (bridge 16-20) [trigonal agonist of SEQ ID NO: 32] the “In vitro activity relative to native peptide (%), vs. Glucagon (cAMP EC50)” value was 1.7%.
Y[Aib]QGTFTSDYSKCLDEKRAKEFVQWLLDHHPSSGQPPPS (bridge 16-20) [trigonal agonist of SEQ ID NO: 22] was tested, and the “In vitro activity relative to native peptide (%), vs. Glucagon (cAMP EC50)” value was 140%.
For H[Aib]QGTFTSDYSKYLDEKACKEFVQWLLAQ (bridge 16-20) [trigonal agonist of SEQ ID NO: 31], the “In vitro activity relative to native peptide (%), vs. Glucagon (cAMP EC50)” value was 2.2%.
With H[Aib]QGTFTSDYSKYLDEKAQKEFVQWLLDTC (bridge 16-20) [trigonal agonist of SEQ ID NO: 30] the “In vitro activity relative to native peptide (%), vs. Glucagon (cAMP EC50)” value was 0.7%.
For {Acetyl(2-(4-imidazolyl))}-GQGTFTSDLSIQYDSEHQRDFIEWLKDTGPSSGAPPPSHG [trigonal agonist of SEQ ID NO: 19], the “In vitro activity relative to native peptide (%), vs. Glucagon (cAMP EC50)” value was less than 0.1%.
In the case of H[Aib]QGTFTSDYSKYLDERACQDFVQWLLDQGGPSSGAPPPS [trigonal agonist of SEQ ID NO: 27], the “In vitro activity relative to native peptide (%), vs. Glucagon (cAMP EC50)” value is reported as 0.8%.
With Y[Aib]QGTFTSDYSKYLDECRAKEFVQWLKNGGPSSGAPPPS (bridge 16-20) [trigonal agonist of SEQ ID NO: 24] the “In vitro activity relative to native peptide (%), vs. Glucagon (cAMP EC50)” value was 9.3%.
H[Aib]QGTFTSDYSIAMDEIHQKDFVNWLLAQKC (bridge 16-20) [trigonal agonist of SEQ ID NO: 33] was tested, and the “In vitro activity relative to native peptide (%), vs. Glucagon (cAMP EC50)” value was less than 0.1%.
H[Aib]QGTFTSDYSKYLDEKRAQEFVCWLLAQKGKKNDWKHNIT [trigonal agonist of SEQ ID NO: 28] was tested, and the “In vitro activity relative to native peptide (%), vs. Glucagon (cAMP EC50)” value was 1.6%.
With Y[Aib]QGTFTSDYSKYLDECRAKEFVQWLLAQKGKKNDWKHNIT (bridge 16-20) [trigonal agonist of SEQ ID NO: 23] the “In vitro activity relative to native peptide (%), vs. Glucagon (cAMP EC50)” value was 9.3%.
For H[Aib]QGTFTSDYSKYLDEKAAKEFVQWLLNTC (bridge 16-20) [trigonal agonist of SEQ ID NO: 29], the “In vitro activity relative to native peptide (%), vs. Glucagon (cAMP EC50)” value was 6%.
With H[Aib]QGTFTSDCSKYLDERAAQDFVQWLLDGGPSSGAPPPS [trigonal agonist of SEQ ID NO: 25] the “In vitro activity relative to native peptide (%), vs. Glucagon (cAMP EC50)” value was 0.1%.
